Source: the Human Domainome abundance scans (Beltran et al. 2025)
± gives the uncertainty stated by the source.

B1: WW domain-containing transcription regulator protein 1, residues 116 to 162; numbered along this chain, Q9GZV5 (parent)
chain: QSYDVTDELPLPPGWEMTFTATGQRYFLNHIEKITTWQDPRKAMNQP

Variants of: B1
Assay: abundance fitness (aPCA) (normalised: wild type 0, dead -1); higher = more abundant; growth selection in yeast, the domain comes from the species named
Conditions: Homo sapiens

| Variant | abundance fitness |
| --- | --- |
| K33G | 0.122 ± 0.024 |
| K33C | -0.198 ± 0.038 |
| K33T | -0.483 ± 0.031 |
| K33A | -0.209 ± 0.025 |
| K33H | -0.2 ± 0.04 |
| T36Y | -0.992 ± 0.21 |
| T36D | -0.816 ± 0.073 |
| T36M | -0.532 ± 0.033 |
| T36A | -0.377 ± 0.04 |
| T36E | -0.722 ± 0.031 |
| T36Q | -0.376 ± 0.051 |
| T36R | -0.858 ± 0.058 |
| T36H | -1.03 ± 0.09 |
| T36F | -1.05 ± 0.28 |
| T36C | -0.305 ± 0.052 |
| T36K | -0.954 ± 0.12 |
| T36N | -0.754 ± 0.09 |
| T36I | -0.831 ± 0.088 |
| T36L | -1.02 ± 0.1 |
| T36S | -0.224 ± 0.044 |
| T36W | -0.986 ± 0.066 |
| T36G | -0.775 ± 0.038 |
| T36V | -0.736 ± 0.04 |
| E32I | -0.055 ± 0.04 |

| Variant | abundance fitness |
| --- | --- |
| E32K | 0.006 ± 0.042 |
| E32T | -0.017 ± 0.033 |
| E32L | 0.201 ± 0.024 |
| E32C | -0.053 ± 0.035 |
| E32F | 0.122 ± 0.046 |
| E32P | -0.805 ± 0.045 |
| E32R | 0.004 ± 0.024 |
| E32D | -0.072 ± 0.045 |
| E32Y | 0.054 ± 0.049 |
| E32S | -0.02 ± 0.025 |
| E32Q | 0.033 ± 0.031 |
| E32W | 0.094 ± 0.028 |
| E32M | 0.072 ± 0.045 |
| E32A | 0.028 ± 0.025 |
| E32V | -0.19 ± 0.025 |
| E32G | -0.091 ± 0.025 |
| E32H | -0.05 ± 0.048 |
| W37S | -0.324 ± 0.029 |
| W37A | -0.376 ± 0.028 |
| W37F | -0.047 ± 0.041 |
| W37D | -0.481 ± 0.057 |
| W37E | -0.244 ± 0.032 |
| W37N | -0.364 ± 0.051 |
| W37H | -0.402 ± 0.04 |

| Variant | abundance fitness |
| --- | --- |
| W37V | -0.348 ± 0.034 |
| W37R | -0.392 ± 0.03 |
| W37C | -0.52 ± 0.065 |
| W37P | -0.51 ± 0.044 |
| W37Q | -0.328 ± 0.042 |
| W37M | -0.265 ± 0.041 |
| W37Y | -0.073 ± 0.047 |
| W37K | -0.305 ± 0.026 |
| W37L | -0.296 ± 0.026 |
| L28H | -0.55 ± 0.099 |
| L28C | -0.16 ± 0.046 |
| L28T | -0.096 ± 0.059 |
| L28W | -0.426 ± 0.035 |
| L28K | 0.128 ± 0.067 |
| L28M | 0.055 ± 0.065 |
| L28D | -0.909 ± 0.15 |
| L28I | 0.044 ± 0.13 |
| L28A | -0.143 ± 0.043 |
| L28V | 0.035 ± 0.042 |
| L28G | -0.583 ± 0.041 |
| L28Y | -0.268 ± 0.087 |
| L28P | -0.697 ± 0.099 |
| L28F | -0.335 ± 0.074 |
| L28S | -0.205 ± 0.043 |

| Variant | abundance fitness |
| --- | --- |
| L28N | -0.446 ± 0.085 |
| L28R | -0.112 ± 0.029 |
| F27W | -0.13 ± 0.049 |
| F27S | -0.579 ± 0.057 |
| F27R | -0.761 ± 0.033 |
| F27C | -0.825 ± 0.05 |
| F27N | -0.859 ± 0.096 |
| F27L | -0.841 ± 0.046 |
| F27A | -0.777 ± 0.034 |
| F27H | -0.707 ± 0.2 |
| F27G | -0.613 ± 0.048 |
| F27K | -0.818 ± 0.2 |
| F27T | -0.793 ± 0.067 |
| F27M | -0.904 ± 0.035 |
| F27Y | -0.027 ± 0.03 |
| F27P | -0.946 ± 0.13 |
| F27Q | -0.977 ± 0.14 |
| F27I | -0.935 ± 0.066 |
| H30S | -0.091 ± 0.027 |
| H30K | -0.05 ± 0.044 |
| H30L | -0.344 ± 0.035 |
| H30N | -0.088 ± 0.049 |
| H30W | -0.378 ± 0.038 |
| H30I | -0.412 ± 0.049 |

| Variant | abundance fitness |
| --- | --- |
| H30V | -0.226 ± 0.025 |
| H30P | -0.218 ± 0.041 |
| H30C | -0.333 ± 0.046 |
| H30A | -0.152 ± 0.026 |
| H30F | -0.484 ± 0.04 |
| H30Y | -0.338 ± 0.052 |
| H30D | -0.247 ± 0.041 |
| H30G | -0.3 ± 0.027 |
| H30Q | -0.076 ± 0.033 |
| H30M | -0.259 ± 0.026 |
| H30R | -0.075 ± 0.029 |
| H30E | -0.167 ± 0.041 |
| H30T | -0.106 ± 0.034 |
| R25F | -0.451 ± 0.073 |
| R25M | -0.232 ± 0.054 |
| R25Y | -0.246 ± 0.065 |
| R25G | -0.37 ± 0.03 |
| R25S | -0.203 ± 0.04 |
| R25K | -0.016 ± 0.044 |
| R25H | -0.385 ± 0.069 |
| R25A | -0.261 ± 0.05 |
| R25I | -0.024 ± 0.057 |
| R25N | -0.448 ± 0.074 |
| R25T | -0.295 ± 0.051 |

| Variant | abundance fitness |
| --- | --- |
| R25E | -0.26 ± 0.04 |
| R25D | -0.934 ± 0.13 |
| R25W | -0.64 ± 0.031 |
| R25Q | -0.116 ± 0.033 |
| F19R | -0.089 ± 0.032 |
| F19Y | -0.082 ± 0.042 |
| F19T | -0.108 ± 0.049 |
| F19S | -0.106 ± 0.041 |
| F19W | -0.021 ± 0.027 |
| F19V | -0.054 ± 0.032 |
| F19L | -0.115 ± 0.031 |
| F19Q | -0.121 ± 0.051 |
| F19P | -0.597 ± 0.033 |
| F19M | -0.185 ± 0.047 |
| I34F | 0.014 ± 0.026 |
| I34Y | -0.172 ± 0.054 |
| I34L | -0.089 ± 0.027 |
| I34D | -0.454 ± 0.051 |
| I34M | -0.15 ± 0.045 |
| I34G | -0.634 ± 0.029 |
| I34N | -0.343 ± 0.063 |
| I34V | -0.102 ± 0.031 |
| I34C | -0.078 ± 0.035 |
| I34T | -0.047 ± 0.048 |

| Variant | abundance fitness |
| --- | --- |
| I34K | -0.35 ± 0.067 |
| I34R | -0.223 ± 0.029 |
| I34E | -0.265 ± 0.028 |
| I34Q | -0.158 ± 0.028 |
| I34P | -0.813 ± 0.034 |
| I34A | -0.304 ± 0.031 |
| I34H | -0.324 ± 0.059 |
| T35M | -0.47 ± 0.04 |
| T35F | -0.566 ± 0.037 |
| T35N | -0.57 ± 0.039 |
| T35G | -0.493 ± 0.033 |
| T35W | -0.581 ± 0.029 |
| T35S | -0.072 ± 0.028 |
| T35H | -0.56 ± 0.039 |
| T35C | -0.236 ± 0.045 |
| T35I | -0.419 ± 0.05 |
| T35P | -0.899 ± 0.081 |
| T35K | -0.433 ± 0.056 |
| T35Y | -0.413 ± 0.068 |
| T35Q | -0.675 ± 0.069 |
| T35E | -0.382 ± 0.041 |
| T35L | -0.7 ± 0.044 |
| T35D | -0.728 ± 0.067 |
